The text below walks through data of paper PMC9190010, “Giardia intestinalis thymidine kinase is a high-affinity enzyme crucial for DNA synthesis and an exploitable target for drug discovery” (The Journal of Biological Chemistry, 2022).

As usually defined, the IC50 is the point on the concentration scale where inhibition reaches its midpoint. The low end stands for greater potency in that assay, the high end for weaker potency in that assay. The Km is the concentration of substrate that gives half-maximal velocity. A word on the Vmax: it is the top rate of the reaction or transport when substrate is in excess. One may read the kcat as the maximal rate divided by the concentration of active sites. Broadly, the kcat/Km is the second-order rate constant that governs catalysis at low substrate concentration.

Data set [1] addresses T1, G. intestinalis thymidine kinase (TK) (Giardia duodenalis, UniProt A8BRU1).
T1 construct: gene GL50803_008364; full length, 392 residues, 42 kDa, monomer (mass photometry); expressed in E. coli BL21(DE3)pLysS from pET-Z as His6-Z fusion, tag removed with TEV protease; two TK1-like domains (1-210 active, 211-392 degenerate)
T1 sequence (A8BRU1 1-392): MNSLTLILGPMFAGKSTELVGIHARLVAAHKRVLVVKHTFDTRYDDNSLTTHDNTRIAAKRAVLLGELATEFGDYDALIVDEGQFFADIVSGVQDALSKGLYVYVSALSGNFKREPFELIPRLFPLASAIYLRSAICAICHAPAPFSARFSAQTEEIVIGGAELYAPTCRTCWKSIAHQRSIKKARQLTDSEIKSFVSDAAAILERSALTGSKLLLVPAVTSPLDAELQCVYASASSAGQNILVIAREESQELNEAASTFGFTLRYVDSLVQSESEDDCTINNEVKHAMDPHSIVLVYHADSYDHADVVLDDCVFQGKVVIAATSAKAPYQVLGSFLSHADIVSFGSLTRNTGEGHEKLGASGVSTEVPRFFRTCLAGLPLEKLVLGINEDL
Kind of data set: thymidine kinase assay (phosphorylation of the nucleoside). It counts as biochemical. The note with it: 2 mM ATP, 5 mM MgCl2, 0.5 mM DTT, 100 mM potassium acetate, 50 mM Tris-HCl pH 7.5, 37 °C. From the text:
(§1) thymidine kinase assay (phosphorylation of the nucleoside) on G. intestinalis thymidine kinase (TK)

Data set [2] deals with T1, G. intestinalis thymidine kinase (TK). The experiment in a line: radiometric [[…]'-3H]thymidine phosphorylation, DE81 / Hybond-XL filter assay. The data set is classed as biochemical.
Substrate in data set [3]: Nc1ccn([C@@H]2O[C@H](COP(=O)(O)OP(=O)(O)OP(=O)(O)O)[C@@H](O)[C@H]2O)c(=O)n1
Kind of data set: purified protein. It counts as biochemical, Giardia duodenalis. The note with it: phosphate donor varied, 1 μM thymidine, 10 mM MgCl2, pH 7.5, 37 °C.

Substrate in data set [4]: Nc1nc2c(ncn2[C@@H]2O[C@H](COP(=O)(O)OP(=O)(O)OP(=O)(O)O)[C@@H](O)[C@H]2O)c(=O)[nH]1
The experiment in a line: purified protein. The note with it: phosphate donor varied, 1 μM thymidine, 10 mM MgCl2, pH 7.5, 37 °C. The data set is classed as biochemical, Giardia duodenalis.

Substrate in data set [5]: Nc1ncnc2c1ncn2[C@@H]1O[C@H](COP(=O)(O)OP(=O)(O)OP(=O)(O)O)[C@@H](O)[C@H]1O
The experiment in a line: purified protein. It counts as biochemical, Giardia duodenalis. The note with it: phosphate donor varied, 1 μM thymidine, 10 mM MgCl2, pH 7.5, 37 °C.

Substrate in data set [6]: O=c1ccn([C@@H]2O[C@H](COP(=O)(O)OP(=O)(O)OP(=O)(O)O)[C@@H](O)[C@H]2O)c(=O)[nH]1
The experiment in a line: purified protein. It counts as biochemical, Giardia duodenalis. The note with it: phosphate donor varied, 1 μM thymidine, 10 mM MgCl2, pH 7.5, 37 °C.

Substrate in data set [7]: Cc1cn([C@@H]2O[C@H](CO)[C@@H](O)[C@@H]2O)c(=O)[nH]c1=O
The experiment in a line: thymidine kinase assay (phosphorylation of the nucleoside). The note with it: 2 mM ATP, 5 mM MgCl2, 0.5 mM DTT, 100 mM potassium acetate, 50 mM Tris-HCl pH 7.5, 37 °C. It counts as biochemical, Giardia duodenalis.
Text: as §1

Substrate in data set [8]: Cc1cn([C@H]2C=C[C@@H](CO)O2)c(=O)[nH]c1=O
Described as above. It counts as biochemical, Giardia duodenalis. As to conditions: 2 mM ATP, 5 mM MgCl2, 0.5 mM DTT, 100 mM potassium acetate, 50 mM Tris-HCl pH 7.5, 37 °C.
Text: as §1

Substrate in data set [9]: O=c1ccn([C@H]2C[C@H](O)[C@@H](CO)O2)c(=O)[nH]1
Described as above. The data set is classed as biochemical, Giardia duodenalis. As to conditions: 2 mM ATP, 5 mM MgCl2, 0.5 mM DTT, 100 mM potassium acetate, 50 mM Tris-HCl pH 7.5, 37 °C.
Text: as §1

For the molecule `Cc1cn([C@H]2C[C@H](N=[N+]=[N-])[C@@H](CO)O2)c(=O)[nH]c1=O` [AZT], the “Km (μM)” value in data set [1] is reported as 0.044 ± 0.002 (12%) μM.
Take `Cc1cn([C@H]2C[C@H](O)[C@@H](COP(=O)(O)OP(=O)(O)OP(=O)(O)O)O2)c(=O)[nH]c1=O` [dTTP]: the IC50 in [2] worked out at 30 ± 3 µM.

B1: G. intestinalis thymidine kinase (TK) (Giardia lamblia ATCC 50803) (protein)
chain: T1 sequence (A8BRU1 1-392)
notes: full length, 392 residues, 42 kDa, monomer (mass photometry); expressed in E. coli BL21(DE3)pLysS from pET-Z as His6-Z fusion, tag removed with TEV protease; two TK1-like domains (1-210 active, 211-392 degenerate)
B1: the Km in [3] was 2396 ± 199 µM; in data set [4] it was 1303 ± 78 µM; in data set [5], 467 ± 29 µM; in data set [6], 1927 ± 269 µM; in [7], 425 ± 47 µM; in data set [8], 39 ± 13 µM. In data set [9], the Km was 5.3 ± 1.3 µM. The Vmax in [3] was determined as 1.7 µmol/min; in data set [4] it was 2.41 µmol/min; in data set [5], 0.93 µmol/min; in data set [6], 1.66 µmol/min; in data set [7], 0.68 µmol/min; in [8], 0.25 µmol/min. The Vmax in [9] was determined as 1.02 µmol/min. The catalytic constant (kcat) in data set [3] worked out at 1.19 s⁻¹; in data set [4], 1.69 s⁻¹; in data set [5], 0.65 s⁻¹; in [6], 1.16 s⁻¹; in data set [7], 0.48 s⁻¹; in [8], 0.17 s⁻¹. In addition, in data set [9], the kcat was 0.67 s⁻¹. Besides, the kcat/Km was determined as 500 M⁻¹ s⁻¹ in data set [3]; 1300 M⁻¹ s⁻¹ in data set [4]; 1400 M⁻¹ s⁻¹ in data set [5]; 600 M⁻¹ s⁻¹ in data set [6]; 1100 M⁻¹ s⁻¹ in [7]; 4500 M⁻¹ s⁻¹ in data set [8]. In addition, the kcat/Km in data set [9] was 134000 M⁻¹ s⁻¹.
